In assay [1] the target is T1, IL-12 (Human IL12 (His Tag)), Sino Biological Cat. No. CT-050-H08H-20 (human, UniProt P29460 23-328; P29459 23-219).
T1 construct: Bought His-tagged p35/p40 heterodimer
T1 sequence (looked up) 1: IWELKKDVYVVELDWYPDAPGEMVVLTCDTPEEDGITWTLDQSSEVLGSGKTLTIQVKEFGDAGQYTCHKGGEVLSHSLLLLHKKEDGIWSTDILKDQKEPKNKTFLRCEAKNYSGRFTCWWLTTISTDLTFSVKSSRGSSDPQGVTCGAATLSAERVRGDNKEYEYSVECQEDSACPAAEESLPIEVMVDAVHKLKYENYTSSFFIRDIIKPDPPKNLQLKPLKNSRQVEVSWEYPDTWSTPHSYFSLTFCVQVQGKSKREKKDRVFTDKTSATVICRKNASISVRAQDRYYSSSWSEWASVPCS
T1 sequence (looked up) 2: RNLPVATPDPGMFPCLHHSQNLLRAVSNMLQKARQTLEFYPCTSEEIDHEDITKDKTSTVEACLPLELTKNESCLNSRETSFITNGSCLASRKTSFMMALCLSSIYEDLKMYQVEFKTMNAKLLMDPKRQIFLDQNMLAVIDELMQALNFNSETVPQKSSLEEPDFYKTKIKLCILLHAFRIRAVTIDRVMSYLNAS
The assay is described as follows: FACS competition, IL-12-His 20 nM on 293T-IL-12RB1&IL-23R cells, antibody 30 µg/mL. As for the experimental part: (§1) 200 μL of 1% PBSA was added into each sample, and the mixture was centrifuged at 700×g for 5 min to discard the supernatant. According to experiment design, correspondingly diluted antibody (highest final concentration of 30 μg/mL, 3-fold dilution, 8 concentrations in total) and human IL-12 (Sino Biological, Cat. No.: CT-050-H08H-20) (final concentration of 20 nM) were mixed at a ratio of 1:1, and a blank control was set. The mixture of antibody and human IL12 was incubated on ice for 30 min and then added to the cell precipitate at 100 μL/sample. The resulting mixture was well mixed and incubated on ice for 60 min. 200 μL of 1% PBSA was added, and the mixture was centrifuged at 700×g for 5 min to discard the supernatant, and then washed twice. Alexa Fluor® 488 anti-His tag antibody (Biolegend, Cat. No.: 652509) was diluted at a ratio of 1:400 and added to each tube at 100 μL. The mixture was well mixed and incubated on ice for 40 min in the absence of light. 200 μL of 1% PBSA was added, and the mixture was centrifuged at 700×g for 5 min to discard the supernatant, and then washed twice. 1% PBSA was added at 200 μL/tube, and the cells were resuspended and transferred to a flow cytometry tube for testing.

Assay [2] concerns the target T1, IL-12 (Human IL12 (His Tag)), Sino …. The assay is described as follows: FACS competition, IL-12-His 20 nM on 293T-IL-12RB1&IL-23R cells, antibody 0.01 µg/mL. As for the experimental part: as §1
For assay [3] the target is unchanged. The assay is described as follows: FACS competition, IL-12-His 20 nM on 293T-IL-12RB1&IL-23R cells, antibody 1.11 µg/mL. As for the experimental part: as §1
For assay [4] the target is unchanged. Put plainly: FACS competition, IL-12-His 20 nM on 293T-IL-12RB1&IL-23R cells, antibody 3.33 µg/mL. As for the experimental part:
as §1

Assay [5] deals with T2, human IL-23 (IL-23-His-Biotin, Akesobio, 20161209) (human, UniProt Q9NPF7 20-189; P29460 23-328).
T2 construct: His-tagged and biotinylated; also called human IL23-His-Biotin
T2 sequence (looked up) 1: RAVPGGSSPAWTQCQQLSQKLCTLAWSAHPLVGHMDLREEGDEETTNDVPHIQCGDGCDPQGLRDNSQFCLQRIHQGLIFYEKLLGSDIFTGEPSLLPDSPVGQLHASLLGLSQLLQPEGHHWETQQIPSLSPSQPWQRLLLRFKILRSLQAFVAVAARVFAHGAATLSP
T2 sequence (looked up) 2: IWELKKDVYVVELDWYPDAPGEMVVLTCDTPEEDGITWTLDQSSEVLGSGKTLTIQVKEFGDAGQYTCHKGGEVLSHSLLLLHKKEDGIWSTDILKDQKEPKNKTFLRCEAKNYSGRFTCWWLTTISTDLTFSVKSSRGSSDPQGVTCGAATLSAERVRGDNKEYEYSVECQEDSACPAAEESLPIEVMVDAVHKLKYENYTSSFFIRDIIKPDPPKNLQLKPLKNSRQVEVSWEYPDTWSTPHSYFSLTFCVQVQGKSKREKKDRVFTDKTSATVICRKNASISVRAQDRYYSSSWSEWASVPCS
The assay is described as follows: FACS competition, IL-23-His-Biotin 2 µg/mL on 293T-IL-12RB1&IL-23R cells, antibody 30 µg/mL. As for the experimental part:
(§2) 2.1. […] 200 μL of 1% PBSA was added into each sample, and the mixture was centrifuged at 700×g for 5 min to discard the supernatant. According to experiment design, correspondingly diluted antibody (highest final concentration of 30 μg/mL, 3-fold dilution, 8 concentrations in total) and human IL-23 (IL-23-His-Biotin, Akesobio, 20161209) (final concentration of 2 μg/mL) were mixed at a ratio of 1:1, and a blank control was set. The mixture of antibody and human IL23 was incubated on ice for 30 min and then added to the cell precipitate at 100 μL/sample. The resulting mixture was well mixed and incubated on ice for 60 min. 200 μL of 1% PBSA was added, and the mixture was centrifuged at 700×g for 5 min to discard the supernatant, and then washed twice. FITC Streptavidin (Biolegend, Cat. No.: 405202) was diluted at a ratio of 1:500 and added to each tube at 100 μL. The mixture was well mixed and incubated on ice for 40 min in the absence of light. 200 μL of 1% PBSA was added, and the mixture was centrifuged at 700×g for 5 min to discard the supernatant, and then washed twice. 1% PBSA was added at 200 μL/tube, and the cells were resuspended and transferred to a flow cytometry tube for testing.

Assay [6] concerns the target T2, human IL-23 (IL-23-His-Biotin, …). Put plainly: FACS competition, IL-23-His-Biotin 2 µg/mL on 293T-IL-12RB1&IL-23R cells, antibody 0.04 µg/mL. As for the experimental part:
as §2

The target is the same in assay [7]. Put plainly: FACS competition, IL-23-His-Biotin 2 µg/mL on 293T-IL-12RB1&IL-23R cells, antibody 0.12 µg/mL. As for the experimental part: as §2
For assay [8] the target is unchanged. The assay is described as follows: FACS competition, IL-23-His-Biotin 2 µg/mL on 293T-IL-12RB1&IL-23R cells, antibody 0.37 µg/mL. As for the experimental part: as §2

B1: H5L9 (antibody, human IgG1, kappa, V domains shown)
VH: EVQLVQSGAEVKKPGESLKISCQSSGYSFTTYWIGWVRQMPGQGLEWIGIMSPVDSDIRYNPMFRGQVTMSVDKSSSTAYLQWSSLKASDTAMYYCARRRPGQGYFDFWGQGTMVTVSS
VL: DIQMTQSPSSLSASVGDRVTITCKASQNVGSWLAWYQQKPGKAPKSLIYSASSRQSGVPSRFSGSGSGTDFTLTISSLQPEDFATYYCQQYDIYPFTFGQGTKLEIKR
notes: Humanized anti-human IL-12/IL-23 p40 antibody; IgG1 (P01857) / kappa (P01834) constant regions
For the molecule B1, the MFI is 117 in assay [1]; 169 in assay [2]; 157 in assay [3]; 146 in assay [4]; 104 in assay [5]; 221 in assay [6]. Besides, the MFI came to 217 in assay [7] and 206 in assay [8].

B2: H5L10 (antibody, human IgG1, kappa, V domains shown)
VH: EVQLVQSGAEVKKPGESLKISCQSSGYSFTTYWIGWVRQMPGQGLEWIGIMSPVDSDIRYNPMFRGQVTMSVDKSSSTAYLQWSSLKASDTAMYYCARRRPGQGYFDFWGQGTMVTVSS
VL: EIVLTQSPATLSASPGERATISCRASQSVGSWLAWYQQKPGQAPRSLIYAASNLQSGIPARFSGSGSGTDFTLTISSLEPEDFAVYYCQQYNIYPYTFGQGTRLEIKR
notes: IgG1/kappa
Turning to B2, the MFI came out at 31.6 in assay [1]; 163 in assay [2]; 44.6 in assay [3]; 40.2 in assay [4]; 11.9 in assay [5]; 230 in assay [6]. For the same molecule, the values for the MFI in assay [7] and in assay [8] were 221 and 169, respectively.

B3: H5L11 (antibody, human IgG1, kappa, V domains shown)
VH: EVQLVQSGAEVKKPGESLKISCQSSGYSFTTYWIGWVRQMPGQGLEWIGIMSPVDSDIRYNPMFRGQVTMSVDKSSSTAYLQWSSLKASDTAMYYCARRRPGQGYFDFWGQGTMVTVSS
VL: EIVLTQSPATLSASPGERATISCRASQSVSSWLAWYQQKPGQAPRSLIYSASNLQSGIPARFSGSGSGTDFTLTISSLEPEDFAVYYCQQYNIYPYTFGQGTRLEIKR
notes: IgG1/kappa
As for B3, the MFI turned out to be 33 in assay [1]; 166 in assay [2]; 54.3 in assay [3]; 42.2 in assay [4]; 12.9 in assay [5]; 224 in assay [6]. The results for the MFI in assay [7] and in assay [8] were 219 and 179, respectively.

B4: H5L12 (antibody, human IgG1, kappa, V domains shown)
VH: EVQLVQSGAEVKKPGESLKISCQSSGYSFTTYWIGWVRQMPGQGLEWIGIMSPVDSDIRYNPMFRGQVTMSVDKSSSTAYLQWSSLKASDTAMYYCARRRPGQGYFDFWGQGTMVTVSS
VL: EIVLTQSPATLSASPGERATISCRASQSVSSWLAWYQQKPGQAPRSLIYAASNRQSGIPARFSGSGSGTDFTLTISSLEPEDFAVYYCQQYNIYPYTFGQGTRLEIKR
notes: IgG1/kappa
Consider B4, for which the MFI in assay [1] was 31.8; in assay [2], 161; in assay [3], 38.5; in assay [4], 31.8; in assay [5], 12.3; in assay [6] it was 234. The MFI in assay [7] was 211; in assay [8], 177.

B5: H5L14 (antibody, human IgG1, kappa, V domains shown)
VH: EVQLVQSGAEVKKPGESLKISCQSSGYSFTTYWIGWVRQMPGQGLEWIGIMSPVDSDIRYNPMFRGQVTMSVDKSSSTAYLQWSSLKASDTAMYYCARRRPGQGYFDFWGQGTMVTVSS
VL: EIVLTQSPATLSASPGERATISCRASQSVSSWLAWYQQKPGQAPRSLIYAASNLQSGIPARFSGSGSGTDFTLTISSLEPEDFAVYYCQQYNIYPFTFGQGTRLEIKR
notes: IgG1/kappa
Regarding B5, the MFI was determined as 34.9 in assay [1]; 149 in assay [2]; 66 in assay [3]; 51.9 in assay [4]; 14.1 in assay [5]; 216 in assay [6]. Besides, the MFI stood at 203 in assay [7] and 179 in assay [8].

B6: ustekinumab (trade name Stelara) (antibody, V domains shown)
VH: EVQLVQSGAEVKKPGESLKISCKGSGYSFTTYWLGWVRQMPGKGLDWIGIMSPVDSDIRYSPSFQGQVTMSVDKSITTAYLQWNSLKASDTAMYYCARRRPGQGYFDFWGQGTLVTVSS
VL: DIQMTQSPSSLSASVGDRVTITCRASQGISSWLAWYQQKPEKAPKSLIYAASSLQSGVPSRFSGSGSGTDFTLTISSLQPEDFATYYCQQYNIYPYTFGQGTKLEIK
Take B6: the MFI turned out to be 28.7 in assay [1]; 160 in assay [2]; 31.9 in assay [3]; 29.7 in assay [4]; 9.64 in assay [5]; 216 in assay [6]. Also, the MFI in assay [7] was 211; in assay [8] it was 186.

These data come from patent publication US20260217813A1 (published 2026).
